{"source": "paper PMC5114558", "about": "“Reader domain specificity and lysine demethylase-4 family function” (Nature Communications, 2016)", "binders": {"B1": {"name": "H3 (19-28) K23me3 peptide for co-crystallization (peptide, UniProt P68431 20-29, looked up)", "peptide": "QLATK(Me3)AARKS", "notes": "density seen for Q19-K27; also called H3K23me3 peptide; H3 (19-27) K23me3 peptide; source: synthetic peptide, bought: Peptide 2.0"}}, "conditions_in_all_cases": "both partners purified", "key": {"KDM4B-DTD N960A": {"target": "T1, KDM4B-DTD N960A (human, UniProt O94953 917-1031, N960A)", "T1 construct": "Human KDM4B double tudor domain, residues 917-1031 of UniProt O94953 (isoform 1); also called N960A variant; source: E. coli BL21 (DE3), purified (Ni-NTA)", "T1 sequence (looked up)": "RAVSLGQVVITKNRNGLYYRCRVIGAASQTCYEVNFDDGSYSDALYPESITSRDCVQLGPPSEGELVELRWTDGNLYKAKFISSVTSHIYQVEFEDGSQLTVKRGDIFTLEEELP", "experiment": "fluorescence polarisation; fluorescein-labelled histone peptide 3 nM, KDM4 DTD titrated 0.1-100 μM; 30 mM HEPES, 150 mM NaCl pH 7.4, 0.01% Triton X-100"}, "KDM4B-DTD S965D": {"target": "T2, KDM4B-DTD S965D (human, UniProt O94953 917-1031, S965D)", "T2 construct": "Human KDM4B double tudor domain, residues 917-1031 of UniProt O94953 (isoform 1); also called KDM4B-S965D; source: E. coli BL21 (DE3), purified (Ni-NTA)", "T2 sequence (looked up)": "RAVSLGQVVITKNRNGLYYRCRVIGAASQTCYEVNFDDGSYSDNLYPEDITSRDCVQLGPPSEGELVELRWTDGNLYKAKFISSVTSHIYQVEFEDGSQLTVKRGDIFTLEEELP", "experiment": "fluorescence polarisation; fluorescein-labelled histone peptide 3 nM, KDM4 DTD titrated 0.1-100 μM; 30 mM HEPES, 150 mM NaCl pH 7.4, 0.01% Triton X-100"}, "[1]": {"target": "T3, KDM4C double tudor domain (KDM4C-DTD), HaloTag-tagged, wild type (human, UniProt Q9H3R0 877-991)", "T3 construct": "Human KDM4C double tudor domain, residues 877-991 of UniProt Q9H3R0 (isoform 1); pFN29 construct; also called HT-KDM4 DTD; source: E. coli BL21 (DE3), purified (Ni-NTA); not shown: HaloTag, N-terminal, kept", "T3 sequence (looked up)": "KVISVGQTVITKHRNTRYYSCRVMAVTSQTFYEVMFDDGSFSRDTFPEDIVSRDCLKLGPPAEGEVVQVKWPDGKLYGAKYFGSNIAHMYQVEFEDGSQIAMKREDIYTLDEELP", "experiment": "fluorescence polarisation; fluorescein-labelled histone peptide 3 nM, KDM4 DTD titrated 0.1-100 μM; 30 mM HEPES, 150 mM NaCl pH 7.4, 0.01% Triton X-100"}, "KDM4A-DTD N931D": {"target": "T4, KDM4A-DTD N931D (human, UniProt O75164 895-1011, N931D)", "T4 construct": "Human KDM4A double tudor domain, residues 895-1011 of UniProt O75164 (isoform 1); source: E. coli BL21 (DE3), purified (Ni-NTA)", "T4 sequence (looked up)": "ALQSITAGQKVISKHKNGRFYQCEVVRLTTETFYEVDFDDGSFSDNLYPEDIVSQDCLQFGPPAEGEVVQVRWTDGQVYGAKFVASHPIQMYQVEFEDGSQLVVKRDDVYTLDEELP", "experiment": "fluorescence polarisation; fluorescein-labelled histone peptide 3 nM, KDM4 DTD titrated 0.1-100 μM; 30 mM HEPES, 150 mM NaCl pH 7.4, 0.01% Triton X-100"}, "[2]": {"target": "T5, KDM4A double tudor domain (KDM4A-DTD), His6 tag cleaved, for crystallization (human, UniProt O75164 895-1011)", "T5 construct": "Human KDM4A double tudor domain, residues 895-1011 of UniProt O75164 (isoform 1); pET28 construct (pET28b in the plasmid section, pET28a in the purification section); also called N-His6-KDM4A-DTD; source: E. coli BL21 (DE3), purified (HisTrap, thrombin cleavage, gel filtration); not shown: His6, N-terminal, cleaved", "T5 sequence (looked up)": "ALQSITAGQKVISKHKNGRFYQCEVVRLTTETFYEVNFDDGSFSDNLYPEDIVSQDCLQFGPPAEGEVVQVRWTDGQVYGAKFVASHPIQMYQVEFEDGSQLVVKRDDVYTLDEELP", "experiment": "crystal structure; KDM4A-DTD mixed with H3K23me3 peptide at about 1:1.5, crystallized at 20 °C in 100 mM CAPS pH 10.5, 200 mM lithium sulfate, 1.2 M NaH2PO4, 0.8 M K2HPO4"}}, "note": "No end group written: not given here. Me3 = trimethyl-lysine"}
{"binder": "ARTK(Me3)QTARKSTGGK (also: fluorescein label, end not given here)", "note": "[H3K4me3 peptide, fluorescein-labelled]", "values": [{"measurement": "Kd", "setting": "KDM4B-DTD N960A", "result": 303, "unit": "µM"}, {"measurement": "Kd", "setting": "KDM4B-DTD S965D", "result": "~200", "unit": "µM"}, {"measurement": "Kd", "setting": "[1]", "result": 6.8, "unit": "µM"}]}
{"binder": "ARKSTGGK(Me3)APRKQLATK (also: fluorescein label, end not given here)", "note": "[H3K14me3 peptide, fluorescein-labelled]", "values": [{"measurement": "Kd", "setting": "KDM4A-DTD N931D", "result": 12.2, "unit": "µM"}]}
{"binder": "B1", "values": [{"measurement": "binding result", "setting": "[2]", "result": "binds"}]}
